Source: US20220016215A1, “GIP RECEPTOR AGONIST PEPTIDE COMPOUNDS AND USES THEREOF” (TAKEDA PHAARMACEUTICAL COMPANY LIMITED, priority 2018, published 2022)
Starred links: 1 amine or outer side, 2 acyl side, 3 side chain; linkers in the order of their positions; H or OH if unused. Non-standard residues stand in square brackets, D forms with d. Groups on a side chain read outwards from the residue. No end group written: not given here. *: point of attachment. C15 diacid = O=C(O)CCCCCCCCCCCCCC(=O)*; γGlu = O=C(O)[C@H](CCC(=O)[*:2])N[*:1]; Palmitoyl = CCCCCCCCCCCCCCCC(=O)*; acyl = not defined here; Aib = CC(C)(N)C(=O)O

What was measured:
human GIPR [1] = target: T1, human GIPR (Homo sapiens, UniProt P48546); assay: Agonist activity on human GIPR, CRE-luciferase reporter assay (increase in intracellular cAMP as indicator); type: cell-based; details: for Selectivity Ratio (B/A): GLP1R EC50 / GIPR EC50
T1 construct: expressed in transfected cells
T1 sequence (P48546 22-466): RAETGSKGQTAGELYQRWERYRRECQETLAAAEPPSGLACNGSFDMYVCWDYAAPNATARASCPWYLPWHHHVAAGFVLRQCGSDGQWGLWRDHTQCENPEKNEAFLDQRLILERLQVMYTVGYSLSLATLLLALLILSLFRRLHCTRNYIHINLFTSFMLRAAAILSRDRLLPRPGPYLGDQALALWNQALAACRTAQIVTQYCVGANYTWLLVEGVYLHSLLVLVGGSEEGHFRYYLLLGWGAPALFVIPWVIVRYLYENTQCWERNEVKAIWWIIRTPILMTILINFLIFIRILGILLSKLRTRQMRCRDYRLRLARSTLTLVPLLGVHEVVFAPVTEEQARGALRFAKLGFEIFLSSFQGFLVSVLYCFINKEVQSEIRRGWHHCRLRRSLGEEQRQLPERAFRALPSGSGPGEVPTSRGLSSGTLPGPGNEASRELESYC
Excerpt: The human GIPR gene having an identical sequence to Genebank Accession No. U39231 is cloned into a pMSRα-neo vector to prepare hGIPR/pMSRα-neo.
(2) Construction of Reporter Plasmid Expressing Cell
Luciferase reporter gene with a cAMP-responsive sequence located upstream is transferred to a CHO-K1 cell to construct a CRE-LUC/CHO-K1 cell.
(4) Transfer of Human GIPR Gene to CRE-LUC/CHO-K1 Cell and Obtaining of Expressing Cell
The plasmid hGIPR/pMSRα-neo obtained in (1) is transferred to the CRE-LUC/CHO-K1 cell obtained in (2) to obtain a transformant. Subsequently, the cell line inducing the luciferase expression, hGIPR/CRE-LUC/CHO-K1 cell, is selected from the obtained transformant by adding GIP.
25 μL each of the hGIPR/CRE-LUC/CHO-K1 cell is inoculated in a 384-well white plate (Corning) in such a way as to provide 5×10^3 cells/well and may be cultured in a HamF12 medium containing 10% fetal bovine serum, 100 U/mL penicillin, and 100 μg/mL streptomycin in a CO2 incubator at 37° C. overnight. 5 μL of a medium containing a test compound is added to the cells and incubated for 4 hours at the indicated concentration in a CO2 incubator at 37° C. Steady-Glo (Promega) is added in amounts of 30 μL and shaken under light shielding. Twenty minutes later, luciferase activity is measured using a plate reader Envision (PerkinElmer). The GIPR agonist activity is calculated with increase in intracellular cAMP concentration as the indicator when the luciferase activity in the presence of 10 nM of GIP was 100% and the luciferase activity in the case of adding DMSO instead of the test compound was 0%.

human GIPR [2] = target: T2, human GIPR (human, UniProt P48546 22-466); assay: cell-based or functional assay
T2 sequence (looked up): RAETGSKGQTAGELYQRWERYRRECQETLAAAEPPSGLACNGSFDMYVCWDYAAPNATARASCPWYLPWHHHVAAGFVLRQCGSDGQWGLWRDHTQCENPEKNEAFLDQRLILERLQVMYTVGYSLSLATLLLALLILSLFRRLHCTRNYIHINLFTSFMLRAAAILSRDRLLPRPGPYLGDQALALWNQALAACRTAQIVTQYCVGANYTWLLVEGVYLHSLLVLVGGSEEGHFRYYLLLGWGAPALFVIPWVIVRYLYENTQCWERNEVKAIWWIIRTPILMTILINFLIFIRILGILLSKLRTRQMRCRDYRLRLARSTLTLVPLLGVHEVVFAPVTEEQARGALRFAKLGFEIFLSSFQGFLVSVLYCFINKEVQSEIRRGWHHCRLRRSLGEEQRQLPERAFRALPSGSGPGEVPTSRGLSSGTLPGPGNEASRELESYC

human GLP-1R = human GLP-1R (human, UniProt P43220 24-463); assay: cell-based or functional assay

**Q.** With CC[C@H](C)[C@H](NC(=O)[C@H](CO)NC(=O)[C@H](Cc1ccc(O)cc1)NC(=O)[C@H](CC(=O)O)NC(=O)[C@H](CO)NC(=O)[C@@H](NC(=O)[C@H](Cc1ccccc1)NC(=O)[C@@H](NC(=O)CNC(=O)[C@H](CCC(=O)O)NC(=O)[C@@H](C)NC(=O)[C@@H](N)Cc1ccc(O)cc1)[C@@H](C)O)[C@@H](C)CC)C(=O)N[C@@H](C)C(=O)N[C@@H](CCSC)C(=O)N[C@@H](CC(=O)O)C(=O)N[C@@H](CCCCN)C(=O)N[C@H](C(=O)N[C@@H](Cc1c[nH]cn1)C(=O)N[C@@H](CCC(N)=O)C(=O)N[C@@H](CCC(N)=O)C(=O)N[C@@H](CC(=O)O)C(=O)N[C@@H](Cc1ccccc1)C(=O)N[C@H](C(=O)N[C@@H](CC(N)=O)C(=O)N[C@@H](Cc1c[nH]c2ccccc12)C(=O)N[C@@H](CC(C)C)C(=O)N[C@@H](CC(C)C)C(=O)N[C@@H](C)C(=O)N[C@@H](CCC(N)=O)C(=O)N[C@@H](CCCCN)C(=O)NCC(=O)N[C@@H](CCCCN)C(=O)N[C@@H](CCCCN)C(=O)N[C@@H](CC(N)=O)C(=O)N[C@@H](CC(=O)O)C(=O)N[C@@H](Cc1c[nH]c2ccccc12)C(=O)N[C@@H](CCCCN)C(=O)N[C@@H](Cc1c[nH]cn1)C(=O)N[C@@H](CC(N)=O)C(=O)N[C@H](C(=O)N[C@H](C(=O)N[C@@H](CCC(N)=O)C(N)=O)[C@@H](C)CC)[C@@H](C)CC)C(C)C)[C@@H](C)CC [Compound 14] as the molecule, how does the “Selectivity Ratio (B/A)” value (human GIPR [1]) read?
**A.** The value was >100,000.

**Q.** What about the EC50 (human GIPR [1]; hGIPR/CRE-LUC/CHO-K1 cells, 4 h incubation, read-out: GIPR EC50 nM (A)) of the same molecule?
**A.** The EC50 was 0.001 nM.

**Q.** “YAibEGTFISDYS(Lys-(ethylene glycol)2-C15 diacid)ALDKIHQQDFVNWLLAQRG-OH [Compound 32]” was tested. Which “Selectivity Ratio (B/A)” value (human GIPR [1]) did it give?
**A.** The value was 83090.

**Q.** How did the “Selectivity Ratio (B/A)” value (human GIPR [1]) turn out when “YAibEGTFISDYSIALDKIHQQ(Lys-(ethylene glycol)2-C15 diacid)FVNWLLAQR-NH2 [Compound 28]” was run?
**A.** The value was >100,000.

**Q.** For “YAibEGTFISDYSIALDKIHQQ(Lys-(ethylene glycol)2-C15 diacid)FVNWLLAQRG-OH [Compound 24]”, which “Selectivity Ratio (B/A)” value (human GIPR [1]) is on record?
**A.** The value was 82783.

**Q.** With “YAibEGTFISDYSIALDKIHQQ(Lys-(ethylene glycol)2-C15 diacid)FVNWLLAQRPSSGAPPPS-NH2 [Compound 29]” as the molecule, how does the “Selectivity Ratio (B/A)” value (human GIPR [1]) read?
**A.** Its value is >100,000.

**Q.** “YAibEGTFISDYSIALDKIHQQDFVNWLLAQ(Lys-(ethylene glycol)2-C15 diacid)G-OH [Compound 31]” was tested. Which “Selectivity Ratio (B/A)” value (human GIPR [1]) did it give?
**A.** Its value is 83090.

**Q.** With “YAibEGTFISDYSIELEK(Lys-(ethylene glycol)2-C15 diacid)AQRAFVEWLLAQGPSSGAPPPS-NH2 [Compound 23]” as the molecule, how does the “Selectivity Ratio (B/A)” value (human GIPR [1]) read?
**A.** Its value is 3364.

**Q.** Which “Selectivity Ratio (B/A)” value (human GIPR [1]) does the source give for “YD-AlaEGTFISDYSIAMD(Lys-(OEG-gGlu)2-Oda)IHQQDFVNWLLAQKGKICNDWKHNIIQ-NH2 [Compound 13]” here?
**A.** Its value is 21,369.

**Q.** For YXEGTFISDYSIXXDKIHQQDFVNWLLAQKGKKNDWKHNITQ (3,5-diBr-Tyr at 1; Aib at 2; Aib at 13; Nle at 14; C-terminal -OH) [Compound No. 8], which “GIPR pEC50” value (human GIPR [2]) is on record?
**A.** The value was 10.7.

**Q.** What about the “Selectivity Ratio (B/A), GLP1R EC50 over GIPR EC50” value (human GIPR [2]) of the same molecule?
**A.** The value was 5600.

**Q.** What about the “GLP1R EC50 nM (B)” value (human GLP-1R) of the same molecule?
**A.** Its value is 118 nM.

**Q.** And the “GLP1R pEC50” value (human GLP-1R)?
**A.** Its value is 6.9.

B1: Compound No. 9 (peptide)
peptide: FXEGTFISDYXIAXDKIHQQDFVNWLLAQKGKKNDWKHNITQ
modifications: Aib at 2; X* = 1-amino,1-cyclopentane carboxylic acid at 11; Nle at 14; C-terminal -OH
**Q.** What does the source list for B1?
**A.** GIPR EC50 nM (A) (human GIPR [2]): 0.004 nM; GIPR pEC50 (human GIPR [2]): 11.4; Selectivity Ratio (B/A), GLP1R EC50 over GIPR EC50 (human GIPR [2]): > 100000; GLP1R EC50 nM (B) (human GLP-1R): > 1000 nM; GLP1R pEC50 (human GLP-1R): < 6

**Q.** For Y[Aib]EGTFTSDYSI[Aib]LDKIAQRAFVQWLIA[Aib]KGKKQEWKHQITQK(acyl)-NH2 (reading uncertain; also: Lys43 acylated, acyl not given here) [Compound No. 16], which “GIPR EC50 nM (A)” value (human GIPR [2]) is on record?
**A.** The value was 0.001 nM.

**Q.** And the “GIPR pEC50” value (human GIPR [2])?
**A.** Its value is 12.

**Q.** And the “GLP1R EC50 nM (B)” value (human GLP-1R)?
**A.** Its value is under 0.02 nM.

**Q.** Which results are given for Y[Aib]EGTFISDYSIAMDKK([γGlu-Palmitoyl])HQQDFVNWLLAQKGKKNDWKHNIIQ-OH (not fully specified; also: acyl given as C16DA in synthesis) [Compound No. 5]?
**A.** GIPR EC50 nM (A) (human GIPR [2]): 0.001 nM; GIPR pEC50 (human GIPR [2]): 11.9; Selectivity Ratio (B/A), GLP1R EC50 over GIPR EC50 (human GIPR [2]): 93300; GLP1R pEC50 (human GLP-1R): 7

**Q.** Y[Aib]EGTFISDYSIALDKK([ethylene glycol-ethylene glycol-C15 diacid])HQQDFVNWLLAQRG-OH [Compound No. 26] was tested. Which “GIPR EC50 nM (A)” value (human GIPR [2]) did it give?
**A.** Its value is 0.001 nM.

**Q.** What about the “GLP1R EC50 nM (B)” value (human GLP-1R) of the same molecule?
**A.** Its value is over 1000 nM.

**Q.** What about the “GLP1R pEC50” value (human GLP-1R) of the same molecule?
**A.** The value was under 9.

**Q.** Which “GIPR EC50 nM (A)” value (human GIPR [2]) does the source give for Y[dA]EGTFISDYSIAMDKIHQQDFVNWLLAQKGKKNDWKHNIIQ-NH2 [Compound No. 14] here?
**A.** Its value is 0.001 nM.

**Q.** What about the “GIPR pEC50” value (human GIPR [2]) of the same molecule?
**A.** The value was 12.3.

**Q.** And the “GLP1R EC50 nM (B)” value (human GLP-1R)?
**A.** The value was 933 nM.

**Q.** And the “GLP1R pEC50” value (human GLP-1R)?
**A.** Its value is 6.03.

**Q.** Which “GIPR EC50 nM (A)” value (human GIPR [2]) does the source give for Y[Aib]EGTFISDYSIALDKK([ethylene glycol-ethylene glycol-C15 diacid])HQQDFVNWLLAQR-NH2 [Compound No. 27] here?
**A.** The value was 0.001 nM.

**Q.** And the “GLP1R pEC50” value (human GLP-1R)?
**A.** The value was 6.02.
